Changes are numbered by the printed parent chain. Names and notes keep the numbering of the source.

From patent US20250289896A1 (ANALYTICAL BIOSCIENCES SHANGHAI, published 2025) come the findings set out here.

Assay [1] concerns the target T1, Human CCR8 (C-C chemokine receptor type 8) (human, UniProt P51685 1-355).
T1 construct: overexpressed on HEK293T (293T-hCCR8), Jurkat-hCCR8 and CHEM1-CCR8 cells; also called hCCR8
As to the kind of experiment: flow cytometry, Hut78 cells (endogenous human CCR8). As to the method:
(§1) Binding specificity of the anti-CCR8 antibodies (mAbs) was tested by FACS using several cell lines. […] The binding titration of the anti-CCR8 antibodies to CCR8 transfectants was performed by serial dilution of antibodies. The diluted antibody (50 μl) in flow cytometry buffer (PBS, 0.5% BSA, 1 mM EDTA) was incubated with cells (50 μl) at a concentration of 2 million cells/ml on ice for 30 min. After two washes with flow cytometry buffer, bound antibody was detected with Alexa647-labeled F(ab′)2 fragment goat anti-human IgG (Jackson ImmunoResearch #709-606-149) (1:500 dilution) for 20 minutes on ice. The fluorescence was measured on a Cytek Aurora cytometer, after two washes with flow cytometry buffer. The data were analyzed with GraphPad Prism 8.0 software to determine EC50 values.

In another assay the target is T2, mCCR8 (UniProt P56484 1-353, limits assumed).
T2 construct: whole, on cells; also called 293T-mCCR8
T2 sequence (looked up): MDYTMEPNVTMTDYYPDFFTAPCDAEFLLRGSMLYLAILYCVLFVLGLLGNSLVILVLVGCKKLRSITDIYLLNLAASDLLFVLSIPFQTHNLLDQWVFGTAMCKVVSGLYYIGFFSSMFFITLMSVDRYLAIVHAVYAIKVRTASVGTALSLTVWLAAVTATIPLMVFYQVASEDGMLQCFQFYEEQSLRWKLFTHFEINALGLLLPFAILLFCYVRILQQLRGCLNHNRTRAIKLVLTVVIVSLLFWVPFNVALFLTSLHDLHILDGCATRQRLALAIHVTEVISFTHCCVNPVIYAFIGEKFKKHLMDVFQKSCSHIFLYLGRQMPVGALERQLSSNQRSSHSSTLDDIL
As to the kind of experiment: flow cytometry, 293T cells with mCCR8. As to the method:
as §1
A general note: Flow cytometry measures light scatter and fluorescence of single cells or particles in a stream.

For assay [2], the target named is T3, cynomolgus macaque CCR8 (cynomolgus macaque, UniProt G7NYJ2 1-355).
T3 construct: whole, on cells; Overexpressed on 293T cells (293T-cCCR8) and Jurkat cells (Jurkat-cynoCCR8); also called cCCR8; cyno CCR8
T3 sequence (G7NYJ2 entry or part of it): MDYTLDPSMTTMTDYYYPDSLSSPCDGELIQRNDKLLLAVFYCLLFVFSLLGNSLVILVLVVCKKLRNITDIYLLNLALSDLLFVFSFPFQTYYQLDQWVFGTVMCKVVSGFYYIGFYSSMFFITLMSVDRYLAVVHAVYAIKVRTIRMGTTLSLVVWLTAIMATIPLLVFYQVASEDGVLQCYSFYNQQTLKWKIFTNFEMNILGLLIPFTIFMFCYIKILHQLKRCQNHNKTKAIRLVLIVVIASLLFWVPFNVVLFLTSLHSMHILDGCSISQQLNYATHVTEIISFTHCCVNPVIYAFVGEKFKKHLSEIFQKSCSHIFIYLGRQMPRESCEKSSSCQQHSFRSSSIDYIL
The experiment in a line: flow cytometry, 293T cells overexpressing cynomolgus CCR8. The procedure: as §1

The target of assay [3] is T1, Human CCR8 (C-C chemokine receptor type …). The experiment in a line: flow cytometry, human PBMC-derived activated Tregs. The procedure: (§2) 2.3 Cell-based binding assays for human PBMC-derived activated Tregs Binding specificity of the anti-CCR8 antibodies was tested by FACS using human PBMC-derived activated Tregs. In summary, Tregs were expanded and activated following the manufacturer's protocol (130-095-345, Miltenyi). Briefly, cryopreserved 7-day expanded human PBMC-derived Tregs (SailyBio) were thawed and rested overnight. They were then restimulated with CD3/CD28 MACSiBeads in the presence of rhIL-2 for 24 hours. […] Afterwards, the activated Tregs were plated at 20K/well in 96-well plates, spun down and the supernatant was removed. Cell pellets were then resuspended and incubated with 100 μl of various concentrations of mAbs or a human lgG1 isotype control antibody (biolegend #403501) at 37° C. for 30 min. The final concentrations of antibodies were indicated on x-axis in each figure. The cells were washed three times with FACS buffer (PBS containing 0.5 mg/ml BSA and 1 mM EDTA). PE-labeled goat-anti-human IgG (Invitrogen) diluted in FACS buffer was added to cell pellets as secondary antibodies at a concentration of 3 μg/ml, and the samples were incubated at 4° C. for 30 min. Samples were washed three times with FACS buffer and analyzed using a Cytek Aurora cytometer. Data were analyzed with GraphPad Prism 8.0 software to determine EC50 values.

Assay [4] has the same target. As to the kind of experiment: flow cytometry, human PBMC-derived activated Tregs. As to the method:
as §2
Especially, FIG. 6 and Table 6 show the titration of anti-CCR8 mAbs ABC138-H2.hu13.IgG1.SDIE, ABC025-H2G.SDIE and ABC080.chH2.SDIE to human PBMC-derived activated Treg cells. ABC138-H2.hu13.IgG1.SDIE was developed by mutagenesis in the light chain CDRs of ABC025.H2G.SDIE, which is the humanized clone of ABC080.chH2.SDIE.
The source holds these as a separate data set.

Assay [5] has as its target T3, cynomolgus macaque CCR8. The experiment in a line: cell-based or functional assay.
Assay [6] concerns the target T1, Human CCR8 (C-C chemokine receptor type …). The experiment in a line: cell-based or functional assay.
The target is the same in assay [7]. As to the kind of experiment: flow cytometry, 293T cells overexpressing human CCR8. The procedure: as §1
Assay [8] has the same target. The experiment in a line: cell-based or functional assay. The source holds these as a separate data set.

T1 sequence (P51685 whole entry): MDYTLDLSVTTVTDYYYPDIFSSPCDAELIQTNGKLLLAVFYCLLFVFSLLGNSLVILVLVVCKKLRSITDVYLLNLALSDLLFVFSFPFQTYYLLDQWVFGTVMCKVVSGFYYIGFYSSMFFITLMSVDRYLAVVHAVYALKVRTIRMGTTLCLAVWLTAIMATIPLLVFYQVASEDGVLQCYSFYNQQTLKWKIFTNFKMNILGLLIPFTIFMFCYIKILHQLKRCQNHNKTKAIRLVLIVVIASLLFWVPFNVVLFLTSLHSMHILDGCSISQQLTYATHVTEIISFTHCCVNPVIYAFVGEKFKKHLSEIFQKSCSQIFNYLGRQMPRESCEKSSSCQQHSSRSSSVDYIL

B1: ABC519 (antibody, human IgG1, kappa, V domains shown)
VH: EVHLVESGGGFVRPGRSMKLSCAASGFPFSFYGMAWVLQTPTKGLEWVASISYDGSDTYYRDSVKGRFAISRDNAKNTLYLQMESLRSEDTATFYCAKTSGYGSFDYWGQGTLVTVSS
VL: DIVMTQSPVSLPVSFGGQASISCRSSRSLVHRNGDTYLHWYLQKPGQSPQLLIYRVSNRFAGVPDRFSGSGSGTDFTLKISRVESEDLGLYYCLQGTHLPPTFGSGTKLEIKR
The term EC50 denotes the midpoint of the concentration-response curve. High values mean weaker potency, low ones greater potency. For B1, the binding result (in [1]; with mCCR8) was “no binding” in each case. The concentration for a half-maximal effect (EC50) with cynomolgus macaque CCR8 [2] was 250 pM.

B2: ABC048-B1.hu11.IgG1.SDIE (antibody, V domains shown)
VH: EVQLVESGGGLVQPGGSLKLSCAASGFTFNTYAMNWVRQASGKGLEWVARIRSKSNNYATYYADSVKDRFTISRDDSKNTLYLQMNSLKTEDTAVYYCVREVRRDYALDQWGQGTMVTVSS
VL: DIVMTQSPLSLPVTPGEPASISCRSSKSLLHSNGNTYLYWFLQKPGQSPQLLIYRMSNLASGVPDRFSGSGSGTDFTLKISRVEAEDVGVYYCMQHVEYPFTFGGGTKLEIKR
notes: IgG1 with SDIE mutations, by its name; also called ABC048-B1.hull.IgG1.SDIE
For the molecule B2, the EC50 in assay [3] worked out at 521 pM.

B3: ABC025-H2G.SDIE (antibody, human IgG1, kappa)
heavy: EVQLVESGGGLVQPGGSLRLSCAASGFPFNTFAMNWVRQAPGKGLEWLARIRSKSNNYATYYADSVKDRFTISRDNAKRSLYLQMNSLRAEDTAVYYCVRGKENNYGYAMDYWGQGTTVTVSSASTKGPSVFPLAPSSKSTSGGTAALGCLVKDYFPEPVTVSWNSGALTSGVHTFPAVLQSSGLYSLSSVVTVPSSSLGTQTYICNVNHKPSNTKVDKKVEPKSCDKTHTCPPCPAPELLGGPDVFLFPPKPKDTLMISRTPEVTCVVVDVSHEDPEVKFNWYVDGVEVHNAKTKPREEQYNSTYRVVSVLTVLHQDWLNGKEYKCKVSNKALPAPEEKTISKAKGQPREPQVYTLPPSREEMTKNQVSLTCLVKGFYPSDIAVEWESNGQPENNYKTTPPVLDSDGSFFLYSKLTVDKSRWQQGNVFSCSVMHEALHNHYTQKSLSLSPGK
light: DIVMTQSPLSLPVTPGEPASISCRSSQSLLHSNANTYLYWFLQKPGQSPQLLIYRMSNLASGVPDRFSGSGSGTDFTLKISRVEAEDVGVYYCMQHLEYPFTFGQGTKLEIKRTVAAPSVFIFPPSDEQLKSGTASVVCLLNNFYPREAKVQWKVDNALQSGNSQESVTEQDSKDSTYSLSSTLTLSKADYEKHKVYACEVTHQGLSSPVTKSFNRGEC
notes: Humanized clone of ABC080.chH2.SDIE; Fc with SDIE mutation
Turning to B3, the concentration for a half-maximal effect (EC50) in assay [3] stood at 1780 pM; in [4], 380 pM.

B4: ABC138-H2.hu13.IgG1.SDIE (antibody, V domains shown)
VH: EVQLVESGGGLVQPGGSLRLSCAASGFPFNTFAMNWVRQAPGKGLEWLARIRSKSNNYATYYADSVKDRFTISRDNAKRSLYLQMNSLRAEDTAVYYCVRGKENNYGYAMDYWGQGTTVTVSS
VL: B2 VL with G34A
notes: Developed by mutagenesis in the light chain CDRs of ABC025.H2G.SDIE; IgG1 with SDIE mutations; also called ABC0138.H2.Hu13.SDIE
Turning to B4, in the assay with cynomolgus macaque CCR8 [5], the “ADCC killing of Jurkat-cynoCCR8 cells, IC50 (pM)” value was determined as 62.9 pM. The half-maximal effective concentration (EC50) in assay [3] was found to be 579 pM; in assay [1], 102 pM; in assay [4], 105 pM; in assay [7] it was 23.7 pM. Further, in [6], the “ADCC killing of Hut78 cells, IC50 (pM)” value was 0.652 pM. The binding result in the assay with mCCR8 and with cynomolgus macaque CCR8 [2] was “no binding” in each case. Also, the “ADCC killing of Jurkat-hCCR8 cells, IC50 (pM)” value in [8] was found to be 2.09 pM.

B5: ABC523 (antibody, human IgG1, kappa, V domains shown)
VH: EVKLVESGGGLVQPGNSLTLSCVASGFTFSNYGMHWIRQAPKKGLEWIAMIYSDSSKMFYTDTVKGRFTISRDNSKNTLYLEMNSLRSEDTAMYYCAARDYGYKGAHYYVMDAWGQGASVTVSS
VL: DIQMTQSPSFLSASVGDRVTIICKSSQNINRYLNWYQQKLGEAPKLLIYNANNLQTGIPSRFSGGGSGTDFTFTIGSLRPEDVATYFCLQHKSWPYTFGPGTKLELKR
Consider B5, for which the binding result (in assay [1]; in the assay with mCCR8) was “no binding” in each case. This molecule gave an EC50 with cynomolgus macaque CCR8 [2] of 260 pM.

B6: ABC084.AF (antibody, human IgG1, kappa, V domains shown)
VH: EVQLLESGGGLVQPGGSLRLSCAASGFTFSSYGMHWVRQAPGKGLEWVSAINWNGGSTGYADSVKGRFTISRDNSKNTLYLQMNSLRAEDTAVYYCARGHHSGYDGRFFDYWGQGTLVTVSS
VL: QSVLTQPPSVSGAPGQRVTISCTGSSSNIGAGYNVHWYQQLPGTAPKLLIYTNNRRPSGVPDRFSGSKSGTSASLAISGLRSEDEADYYCAAWDASLSGWVFGGGTKLTVLR
notes: Prior art antibody (PCT/EP2021/067504)
In assay [3], B6 showed a 50% effective concentration (EC50) of 33800 pM. In other words, the double-digit nanomolar range.

B7: ABC080.chH2.SDIE (antibody)
heavy: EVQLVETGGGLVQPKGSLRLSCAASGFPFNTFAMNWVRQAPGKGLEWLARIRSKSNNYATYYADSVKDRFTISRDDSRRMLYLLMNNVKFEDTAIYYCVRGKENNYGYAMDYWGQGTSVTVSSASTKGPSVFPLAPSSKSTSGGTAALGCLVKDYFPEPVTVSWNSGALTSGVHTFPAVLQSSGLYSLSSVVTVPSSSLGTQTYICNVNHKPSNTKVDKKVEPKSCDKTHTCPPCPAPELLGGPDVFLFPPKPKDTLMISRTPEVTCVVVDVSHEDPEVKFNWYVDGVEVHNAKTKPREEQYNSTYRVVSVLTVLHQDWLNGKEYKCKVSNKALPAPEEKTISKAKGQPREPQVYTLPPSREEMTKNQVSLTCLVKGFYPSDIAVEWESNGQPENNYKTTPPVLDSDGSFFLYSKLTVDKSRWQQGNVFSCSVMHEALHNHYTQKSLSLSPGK
light: DIVMTQAAPSVPVTPGESVSISCRSSQSLLHSNGNTYLYWFLQRPGQSPQLLIYRMSNLASGVPDRFSGSGSGTAFTLRISRVEAEDVGVYYCMQHLEYPFTFGIGTKLELKRTVAAPSVFIFPPSDEQLKSGTASVVCLLNNFYPREAKVQWKVDNALQSGNSQESVTEQDSKDSTYSLSSTLTLSKADYEKHKVYACEVTHQGLSSPVTKSFNRGEC
notes: Chimeric antibody with SDIE Fc; ABC025.H2G.SDIE is its humanized clone
Consider B7, for which the EC50 in assay [4] was found to be 380 pM; in assay [7], 135 pM.

B8: ABC820 (antibody, human IgG1, kappa, V domains shown)
VH: EVQLVESGGGLVQPGRSLKLSCAASGFTFSDYYMAWVRQAPKKGLEWVASISYEGRSTYYGDSVKGRFTISRDDEKSILYLQMSGPRSEDTATYYCARQDLYYGRNPSWFLDFWGPGTMVTVSS
VL: IVMTQSPTSMSISVGGRVTMNCKASQNVGSNVDWFQQKTGQSPKLLIYKTTSRYTGVPDRFTGSGSKTDFTFTISNMQAEDLAVYYCLQSNSFPYTFGAGTKLELKR
Consider B8, for which the half-maximal effective concentration (EC50) in assay [1] was 19400 pM; in [7] it was 103 pM; with cynomolgus macaque CCR8 [2], 90 pM. In the assay with mCCR8, the binding result is “no binding”.

B9: ABC078.AF (antibody, human IgG1, kappa, V domains shown)
VH: QVQLVQSGAEVKKPGASVKVSCKASGYTFTDSEMHWVRQATGQGLEWMGAIQPETGGTAYNQKFKARVTMTRDTSISTAYMELSSLRSEDTAVYYCARRRRNFDYWGQGTLVTVSS
VL: DIVMTQTPLSLSVTPGQPASISCRSSQSLFHSSGNTYLHWYLQKPGQPPQLLIYKVSNRFSGVPDRFSGSGSGTDFTLKISRVEAEDVGVYYCSQSTHVPFTFGQGTKLEIKR
notes: Prior art antibody (PCT/US2021/023430); also called BMS-986340
Take B9: the “ADCC killing of Jurkat-cynoCCR8 cells, IC50 (pM)” value with cynomolgus macaque CCR8 [5] was 346 pM. This molecule also had an EC50 in assay [3] of 729 pM. In assay [6], the “ADCC killing of Hut78 cells, IC50 (pM)” value was found to be 0.637 pM. Moreover, the “ADCC killing of Jurkat-hCCR8 cells, IC50 (pM)” value in assay [8] stood at 2.79 pM.

B10: ABC078 (antibody, V domains shown)
VH: B9 VH
VL: B9 VL
Take B10: the EC50 in assay [1] was found to be 648 pM; in [7] it was 28.2 pM. The binding result in the assay with mCCR8 and with cynomolgus macaque CCR8 [2] was “no binding” each time.

B11: ABC814 (antibody, human IgG1, kappa, V domains shown)
VH: EVQLVESGGGLVQPGRSLKLSCVASGFTFSDYYMAWVRQAPKKGLEWVASISYEGRSTYYGDSVKGRFTISRDDAKSTLYLQMNSLRSEDTATYYCARQDLYYGHKSYWYLDFWGPGTMVTVSS
VL: DIVMTQSPTSMSISVGDRVTMNCKASQNVGSNVDWYQQKPGQSPKLLIYKTSSRSTGVPDRFTGSGSRTDFTFTITNMQAEDLAVYYCMQSNSYPFTFGAGTKLELKR
For B11, the EC50 in assay [1] was found to be 11600 pM; in assay [7], 82.8 pM; with cynomolgus macaque CCR8 [2] it was 100 pM. Besides, in the assay with mCCR8, the binding result is listed as “no binding”.
